Positions count from the first letter of the chain named. “Also recorded” adds a separate entry of the source.
T1: FSTL1 (Homo sapiens, UniProt Q12841)
T1 sequence (Q12841 21-308): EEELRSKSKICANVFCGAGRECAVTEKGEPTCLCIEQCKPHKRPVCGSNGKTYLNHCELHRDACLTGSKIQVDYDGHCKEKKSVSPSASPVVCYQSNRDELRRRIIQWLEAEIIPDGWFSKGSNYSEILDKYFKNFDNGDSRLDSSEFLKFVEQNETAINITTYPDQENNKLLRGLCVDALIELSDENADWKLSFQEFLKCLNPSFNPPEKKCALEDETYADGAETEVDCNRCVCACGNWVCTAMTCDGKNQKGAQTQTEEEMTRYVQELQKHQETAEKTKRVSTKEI

B1: #5-3: chicken-mouse chimeric anti-FSTL1 antibody clone; variable regions SEQ ID NO: 767 (light), 769 (heavy) (antibody, V domains shown)
VH: AVTLDESGGGLQTPGGALSLVCKGSGFSFSSFNMFWVRQAPGKGLEWVAGIGKDGVPKYGAAVDGRATISKDNGQSTMRLQLNNLRAEDTGTYFCAKAAGGCSYDWCGIYAGDIDTWGHGTEVIVSS
VL: ASTQPSSVSANPGETVKITCSGGSGYYYGWYQQKSPGSVPVTVIYNNNNRPSDIPSRFSGSKSGSTGTLTITGVRAEDEAVYYCGGYDNSGTGIFGAGTTLTVL
modifications: mouse constant regions
B2: #8-4: chicken-mouse chimeric anti-FSTL1 antibody clone; variable regions SEQ ID NO: 795 (light), 797 (heavy) (antibody, V domains shown)
VH: AVTLDESGGGLQTPGGGLSLVCKGSGFTLSSFNMFWVRQAPGKGLEWVAGVGKDGGTAYGAAVDGRATISRDSGQSTVRLQLNNLRAEDTGTYFCAKAAGGCSYSWCGAYVGDLDAWGHGTEVIVSS
VL: B1 VL with T3S, V39A, N48D, R50K, R75Q, A76V, Y83F
modifications: mouse constant regions
B3: #8-7: chicken-mouse chimeric anti-FSTL1 antibody clone; variable regions SEQ ID NO: 799 (light), 801 (heavy) (antibody, V domains shown)
VH: B1 VH with A17G, S28T, M78L
VL: ASTQPSSVSANPGEAVKITCSGGSGSYYGWYQQKSPGSAPVTVIYNNNQRPSDIPSRFSGSKSGSTATLTITGVQAEDEAVYFCGGYDSSTGHGGIFGAGTTLTVL
modifications: mouse constant regions
B4: #5-8: chicken-mouse chimeric anti-FSTL1 antibody clone; variable regions SEQ ID NO: 771 (light), 773 (heavy) (antibody, V domains shown)
VH: B1 VH with A17G, S28T, A61T, A111T
VL: B3 VL
modifications: mouse constant regions
B5: #5-2: chicken-mouse chimeric anti-FSTL1 antibody clone; variable regions SEQ ID NO: 763 (light), 765 (heavy) (antibody, V domains shown)
VH: B2 VH with L29F, A58G, R71K, S73N, V78L, F94Y, S105G, A109S, L114I
VL: B3 VL
modifications: mouse constant regions
B6: #6-55: chicken-mouse chimeric anti-FSTL1 antibody clone; variable regions SEQ ID NO: 783 (light), 785 (heavy) (antibody, V domains shown)
VH: AVTLDESGGGLQTPGGALSLVCKGSGFTFTSVTMQWVRQAPGKGLEWVASVCSGSSTYYAPAVKGRATISRDNGQSTVRLQLSNLRPEDTGTYYCAKIAGRARWSCTSAAYNIDAWGHGTEVIVSS
VL: ASTQPSSVSAIPGETVKITCSGGGNNYGWYQQRSPGSAPVTVIYYNDNRPSNIPSRFSGSTSGSTSTLTITGVQADDEAIYYCGSWDSNTDSGIFGAGTTLTVL
modifications: mouse constant regions

Assays:
[1] = test system: human pancreatic cancer cell line Panc1; assay: Inhibition of activation of tumor cells by FSTL1, Panc1 (Examples 5, 7, 9, 10, 11); type: cell-based
Method: (§1) It is known that tumor cells activated by stimulation with FSTL1 highly express molecule groups promoting bone metastasis and increase metastatic invasive capacity (Cancer Research 73: 6185, 2013). Thus, 2×10^7 cells/well of a human pancreatic cancer cell line Panc1 were suspended in 1 mL/well of D-MEM medium (GIBCO/Thermo Fisher Scientific Inc. Cat. No. C11885500BT) containing 10% fetal bovine serum, supplemented with 50 ng/mL (final concentration) of FSTL1 (R&D Systems, Inc.) and 10 μg/mL of the anti-FSTL1 antibody (#5-2, #5-8, #5-10, #5-43, #6-55, or #7-34) or its isotype mouse IgG (anti-DNP antibody) as a control antibody “Control”, and cultured under stimulation (6-well plate). 3 days thereafter, the number of cells was counted while the cells were stained with a PE-labeled anti-RANKL antibody (eBioscience Cat. No. 12-6619) and a PE-labeled anti-CCR2 antibody (R&D Systems, Inc. Cat. No. FAB151P) in order to examine the expression of markers indicating bone metastatic properties, and the contents of RANKL-positive cells and CCR2-positive cells were analyzed by flow cytometry using FACScan (Becton, Dickinson and Company) to calculate the numbers of cells per culture. […] Therefore, in Examples below, judgment was made with the number of cells as an index.
(§2) In the same way as in Example 5, a human pancreatic cancer cell line Panc1 was supplemented with 50 ng/mL (final concentration) of FSTL1 (R&D Systems, Inc.) and 10 μg/mL of the anti-FSTL1 antibody (the same clones as in Example 6) or a control antibody and cultured under stimulation. 3 days thereafter, the number of cells was counted while the cells were stained with a PE-labeled anti-RANKL antibody and a PE-labeled anti-CCR2 antibody, and the contents of RANKL-positive cells and CCR2-positive cells were analyzed by flow cytometry using FACScan (Becton, Dickinson and Company) to calculate the numbers of cells per culture (FIG. 99B).
as §2, with “20” for “50”, “FSTL1” for “FSTL1 (R&D Systems, Inc.)”, “(#5-2, #5-8, or #6-55)” for “(the same clones as in Example 6)”, “100B).” for “99B).”
as §2, with “FSTL1” for “FSTL1 (R&D Systems, Inc.)”, “(#5-2, #5-3, #6-55, #7-34, #8-1, #8-4, #8-7, or #8-8)” for “(the same clones as in Example 6)”, “culture.” for “culture (FIG. 99B).”
(§3) In the same way as in Example 5, a human pancreatic cancer cell line Panc1 was supplemented with 50 ng/mL (final concentration) of FSTL1 and 10 μg/mL of the anti-FSTL1 antibody (#6-55) or a control antibody and cultured under stimulation. 3 days thereafter, the number of cells was counted while the cells were stained with a PE-labeled anti-RANKL antibody and a PE-labeled anti-CCR2 antibody, and the contents of RANKL-positive cells and CCR2-positive cells were analyzed by flow cytometry using FACScan (Becton, Dickinson and Company) to calculate the numbers of cells per culture.

FSTL1 = target: T1, FSTL1; assay: Inhibition of activation of tumor cells by FSTL1, RANKL- and CCR2-positive cells in human pancreatic cancer cell line Panc1 (Examples 5, 7, 9, 10, 11); type: cell-based; design: purchased R&D Systems, Inc. 1694-FN-050; conditions: for inhibitory activity against the expansion of RANKL-positive cells and CCR2-positive cells: FSTL1 50 ng/mL
Method: as §1
as §2, with “67B).” for “99B).”
as §3, with “20” for “50”, “(#5-2, #5-8, or #6-55)” for “(#6-55)”, “culture (FIG. 68B).” for “culture.”
as §3, with “(#5-2, #5-3, #6-55, #7-34, #8-1, #8-4, #8-7, or #8-8)” for “(#6-55)”
as §3

[2] = Example 7: 50 ng/mL FSTL1, 10 μg/mL antibody, 3 days, FIG. 99B
[3] = Example 7, antibody 10 μg/mL, 3 days
[4] = Example 10: 50 ng/mL FSTL1, 10 μg/mL antibody, 3 days
[5] = Example 10, antibody 10 μg/mL, 3 days, including newly obtained clones
[6] = Example 9: 20 ng/mL FSTL1, 10 μg/mL antibody, 3 days, FIG. 100B

Molecule	inhibitory activity against the expansion of RANKL-positive cells and CCR2-positive cells [1, 2]	inhibitory activity against the expansion of RANKL-positive cells and CCR2-positive cells (FSTL1; [3])	inhibitory activity against the expansion of RANKL-positive cells and CCR2-positive cells [1, 4]	inhibitory activity against the expansion of RANKL-positive cells and CCR2-positive cells (FSTL1; [5])	inhibitory activity against the expansion of RANKL-positive cells and CCR2-positive cells [1, 6]	also measured
B1	higher inhibitory activity	higher inhibitory activity				
B2			high inhibitory activity	higher inhibitory activity; also recorded: high inhibitory activity		
B3			high inhibitory activity	higher inhibitory activity; also recorded: high inhibitory activity		
B4	higher inhibitory activity	higher inhibitory activity			exhibited inhibitory activity	
B5			high inhibitory activity	higher inhibitory activity; also recorded: high inhibitory activity		
B6				higher inhibitory activity; also recorded: high inhibitory activity	exhibited inhibitory activity	inhibitory activity against the expansion of RANKL-positive cells and CCR2-positive cells ([1]; Example 11: 50 ng/mL FSTL1, at all tested doses (5, 10 and 20 μg/mL), no dose dependence, FIG. 100D): ~100%; inhibition of cell induction of RANKL-positive cells and CCR2-positive cells (dose dependence test) (FSTL1; Example 11, figure legend): strongly inhibited the cell induction of both RANKL-positive cells and CCR2-positive cells; inhibitory activity against the expansion of RANKL-positive cells and CCR2-positive cells (FSTL1; Example 11, all tested doses 5, 10 and 20 μg/mL, dose dependence not confirmed): ~100%
